Key:
[1] = target: LexA-hr (hr amino acids 575-1215 fused to the lexA DNA binding domain) (rat); assay: yeast two-hybrid, β-galactosidase activity with TRIAC (10^-6 M) against without hormone
[2] = target: TR (thyroid hormone receptor co-expressed with hr in the reporter assay); assay: cell-based or functional assay
[3] = target: T1, hr fusion protein (hr amino acids 575-1215 fused to either GST or TrpE; which one is not said) (rat, UniProt P97609 549-1181); assay: far western, 35S-labeled probe on immobilized hr fusion protein
T1 construct: also called the hr fusion protein; not shown: fusion partner is GST or TrpE
T1 sequence: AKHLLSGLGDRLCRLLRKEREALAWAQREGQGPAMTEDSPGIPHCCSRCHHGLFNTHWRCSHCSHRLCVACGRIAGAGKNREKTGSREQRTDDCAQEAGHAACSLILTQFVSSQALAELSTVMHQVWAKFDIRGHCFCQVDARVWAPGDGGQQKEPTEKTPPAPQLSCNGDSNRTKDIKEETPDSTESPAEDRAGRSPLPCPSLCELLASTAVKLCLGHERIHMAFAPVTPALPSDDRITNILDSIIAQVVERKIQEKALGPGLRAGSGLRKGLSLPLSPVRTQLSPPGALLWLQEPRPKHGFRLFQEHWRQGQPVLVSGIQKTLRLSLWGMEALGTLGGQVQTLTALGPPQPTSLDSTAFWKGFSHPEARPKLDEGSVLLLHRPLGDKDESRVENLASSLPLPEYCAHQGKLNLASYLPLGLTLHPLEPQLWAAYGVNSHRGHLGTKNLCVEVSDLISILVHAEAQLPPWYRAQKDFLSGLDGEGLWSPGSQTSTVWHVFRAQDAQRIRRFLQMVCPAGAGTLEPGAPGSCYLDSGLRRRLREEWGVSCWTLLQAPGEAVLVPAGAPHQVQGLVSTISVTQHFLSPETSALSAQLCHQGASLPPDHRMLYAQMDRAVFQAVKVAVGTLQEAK

TRα1 (as tested in the two-hybrid assay) (receptor)
fold reduction of interaction by hormone [1]: 2 fold

hr (hairless gene product expressed from an expression construct containing the hr gene) (from UniProt P97609 1-1181)
thyroid hormone induced transcription (TRE-containing reporter) [2]: 2 fold

B1: 35S-RAR (retinoic acid receptor, from pCMX hRARα) (receptor, human, UniProt P10276 1-462, looked up)
chain: MASNSSSCPTPGGGHLNGYPVPPYAFFFPPMLGGLSPPGALTTLQHQLPVSGYSTPSPATIETQSSSSEEIVPSPPSPPPLPRIYKPCFVCQDKSSGYHYGVSACEGCKGFFRRSIQKNMVYTCHRDKNCIINKVTRNRCQYCRLQKCFEVGMSKESVRNDRNKKKKEVPKPECSESYTLTPEVGELIEKVRKAHQETFPALCQLGKYTTNNSSEQRVSLDIDLWDKFSELSTKCIIKTVEFAKQLPGFTTLTIADQITLLKAACLDILILRICTRYTPEQDTMTFSDGLTLNRTQMHNAGFGPLTDLVFAFANQLLPLEMDDAETGLLSAICLICGDRQDLEQPDRVDMLQEPLLEALKVYVRKRRPSRPHMFPKMLMKITDLRSISAKGAERVITLKMEIPGSMPPLIQEMLENSEGLDTLSGQPGGGGRDGGGLAPPPGSCSPSLSPSSNRSSPATHSP
modifications: 35S-methionine label
binding result [3]: no binding

B2: 35S-RXR (retinoid X receptor, from pCMX hRXRα) (receptor, human, UniProt P19793 1-462, looked up)
chain: MDTKHFLPLDFSTQVNSSLTSPTGRGSMAAPSLHPSLGPGIGSPGQLHSPISTLSSPINGMGPPFSVISSPMGPHSMSVPTTPTLGFSTGSPQLSSPMNPVSSSEDIKPPLGLNGVLKVPAHPSGNMASFTKHICAICGDRSSGKHYGVYSCEGCKGFFKRTVRKDLTYTCRDNKDCLIDKRQRNRCQYCRYQKCLAMGMKREAVQEERQRGKDRNENEVESTSSANEDMPVERILEAELAVEPKTETYVEANMGLNPSSPNDPVTNICQAADKQLFTLVEWAKRIPHFSELPLDDQVILLRAGWNELLIASFSHRSIAVKDGILLATGLHVHRNSAHSAGVGAIFDRVLTELVSKMRDMQMDKTELGCLRAIVLFNPDSKGLSNPAEVEALREKVYASLEAYCKHKYPEQPGRFAKLLLRLPALRSIGLKCLEHLFFFKLIGDTPIDTFLMEMLEAPHQMT
modifications: 35S-methionine label
binding result [3]: no binding
